Results reported in PMC6760453, “Conformational characterization of full-length X-chromosome-linked inhibitor of apoptosis protein (XIAP) through an integrated approach” (IUCrJ, 2019).

Target: the molecule itself
Assay: EPR-DEER; Q-band (34 GHz) four-pulse DEER at 50 K on MTSL-labelled XIAP; dimer concentration 15 uM; 20 mM Tris pH 7.4

B1: XIAP C202R1 (XIAP C12A, C213G, C351S labelled with MTSL nitroxide on Cys202) (natural protein, human, UniProt P98170 1-497, looked up)
chain: MTFNSFEGSKTAVPADINKEEEFVEEFNRLKTFANFPSGSPVSASTLARAGFLYTGEGDTVRCFSCHAAVDRWQYGDSAVGRHRKVSPNCRFINGFYLENSATQSTNSGIQNGQYKVENYLGSRDHFALDRPSETHADYLLRTGQVVDISDTIYPRNPAMYSEEARLKSFQNWPDYAHLTPRELASAGLYYTGIGDQVQCFCCGGKLKNWEPGDRAWSEHRRHFPNCFFVLGRNLNIRSESDAVSSDRNFPNSTNLPRNPSMADYEARIFTFGTWIYSVNKEQLARAGFYALGEGDKVKCFHCGGGLTDWKPSEDPWEQHAKWYPGCKYLLEQKGQEYINNIHLTHSLEESLVRTTEKTPSLTRRIDDTIFQNPMVQEAIRMGFSFKDIKKIMEEKIQISGSNYKSLEVLVADLVNAQKDSMQDESSQTSLQKEISTEEQLRRLQEEKLCKICMDRNIAIVFVPCGHLVTCKQCAEAVDKCPMCYTVITFKQKIFMS
modifications: MTSL nitroxide spin label on Cys202
notes: Mutations were introduced into the WT XIAP gene; also called XIAP C202-MTSL
binding result: binds
